Laboratory results: publication PMC11218372

Tests used:
[1] = molecular target: CA7-PabCA, carbonic anhydrase from Pyrococcus abyssi (Py. abyssi); assay: SDS-PAGE; cell lysates of E. coli overexpressing the CA, NuPAGE 4-12% Bis-Tris gel in MES buffer; CA7 expressed without additional Zn, CA8 with 0.5 mM ZnSO4
[2] = molecular target: CA7-PabCA, carbonic anhydrase from Pyrococcus abyssi (Py. abyssi); assay: SDS-PAGE; SEC fractions of the purified CA (Cobalt His-Pur, Superdex 75), NuPAGE 4-12% Bis-Tris gel
[3] = molecular target: CA8-PhoCA, carbonic anhydrase from Pyrococcus horikoshii (Py. horikoshii); assay: SDS-PAGE; cell lysates of E. coli overexpressing the CA, NuPAGE 4-12% Bis-Tris gel in MES buffer; CA7 expressed without additional Zn, CA8 with 0.5 mM ZnSO4
[4] = molecular target: CA8-PhoCA, carbonic anhydrase from Pyrococcus horikoshii (Py. horikoshii); assay: SDS-PAGE; SEC fractions of the purified CA (Cobalt His-Pur, Superdex 75), NuPAGE 4-12% Bis-Tris gel

| stoichiometry N [1] | stoichiometry N [2] | stoichiometry N [3] | stoichiometry N [4] | Substance |
| --- | --- | --- | --- | --- |
| 3 | 3 |  |  | CA7-PabCA, carbonic anhydrase from Pyrococcus abyssi (enzyme) |
|  |  | 3 | 3 | CA8-PhoCA, carbonic anhydrase from Pyrococcus horikoshii (enzyme) |
